From publication PMC4288179, “Synergic interplay of the La motif, RRM1 and the interdomain linker of LARP6 in the recognition of collagen mRNA expands the RNA binding repertoire of the La module”
Residue numbers refer to the chain shown, from its start.

How the values were obtained:
Assay in all cases: ITC; ITC: 20 mM Tris pH 7.25, 100 mM KCl, 5 mM MgCl2, 1 mM DTT, 298 K; protein titrated into RNA
HsLARP6(70-300) K86A = target: T1, HsLARP6(70-300) K86A (Homo sapiens, UniProt Q9BRS8 70-300, K86A); conditions: protein: recombinant; tags: N-terminal His6 (TEV-cleavable); stem-loop with internal bulge
T1 sequence: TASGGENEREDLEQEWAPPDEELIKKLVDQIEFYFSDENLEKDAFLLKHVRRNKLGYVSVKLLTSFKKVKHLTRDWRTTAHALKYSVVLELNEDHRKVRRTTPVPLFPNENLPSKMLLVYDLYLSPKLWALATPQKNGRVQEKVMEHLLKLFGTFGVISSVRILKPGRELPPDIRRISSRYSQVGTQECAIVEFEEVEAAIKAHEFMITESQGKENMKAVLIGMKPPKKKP

[1] = target: T2, HsLARP6 La module (70-300) (Homo sapiens, UniProt Q9BRS8 70-300); conditions: protein: recombinant; tags: N-terminal His6, TEV-cleaved for initial ITC; stem-loop with internal bulge
T2 sequence: T1 sequence with A17K

HsLARP6(70-300) R237A = target: T3, HsLARP6(70-300) R237A (Homo sapiens, UniProt Q9BRS8 70-300, R237A); conditions: protein: recombinant; tags: N-terminal His6 (TEV-cleavable); stem-loop with internal bulge
T3 sequence: T1 sequence with A17K, R168A

HsLARP6 LaM (70-183) = target: T4, HsLARP6 LaM (70-183) (Homo sapiens, UniProt Q9BRS8 70-183); conditions: protein: recombinant; tags: N-terminal His6 (TEV-cleavable); stem-loop with internal bulge
T4 sequence: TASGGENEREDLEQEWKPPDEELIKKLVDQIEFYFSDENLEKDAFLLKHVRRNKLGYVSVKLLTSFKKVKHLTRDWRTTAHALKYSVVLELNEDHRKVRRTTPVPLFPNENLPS

HsLARP6(70-300) R245A = target: T5, HsLARP6(70-300) R245A (Homo sapiens, UniProt Q9BRS8 70-300, R245A); conditions: protein: recombinant; tags: N-terminal His6 (TEV-cleavable); stem-loop with internal bulge
T5 sequence: T1 sequence with A17K, R176A

RRM1 chimera = target: T6, RRM1 chimera (Homo sapiens, UniProt Q9BRS8 70-179+P05455:111-202, internal_change); conditions: protein: recombinant; tags: N-terminal His6 (TEV-cleavable); stem-loop with internal bulge
T6 sequence: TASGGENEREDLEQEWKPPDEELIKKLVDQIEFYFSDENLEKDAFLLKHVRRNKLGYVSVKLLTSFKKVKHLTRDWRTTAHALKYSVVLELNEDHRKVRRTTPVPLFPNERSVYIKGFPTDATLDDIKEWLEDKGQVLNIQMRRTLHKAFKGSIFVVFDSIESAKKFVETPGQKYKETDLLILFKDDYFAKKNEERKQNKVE

HsLARP6(70-300) F135A = target: T7, HsLARP6(70-300) F135A (Homo sapiens, UniProt Q9BRS8 70-300, F135A); conditions: protein: recombinant; tags: N-terminal His6 (TEV-cleavable); stem-loop with internal bulge
T7 sequence: T1 sequence with A17K, F66A

HsLARP6(70-300) F102A = target: T8, HsLARP6(70-300) F102A (Homo sapiens, UniProt Q9BRS8 70-300, F102A); conditions: protein: recombinant; tags: N-terminal His6 (TEV-cleavable); stem-loop with internal bulge
T8 sequence: T1 sequence with A17K, F33A

For CCACAAAGAGUCUACAUGUCUAGGGUCUAGACAUGUUCAGCUUUGUGG (structured_RNA) [48 nt RNA (collagen alpha1(I) 5' UTR SL)], the Kd (HsLARP6(70-300) K86A) was 77 nM, the Kd [1] was 48 nM and the Kd (HsLARP6(70-300) R237A) was 15 nM. For the same binder, the binding result (HsLARP6 LaM (70-183)) was “no binding”, the Kd (HsLARP6(70-300) R245A) was 36 nM and the binding result (RRM1 chimera) was “no binding”. CCACAAAGAGUCUACAUGUCUAGGGUCUAGACAUGUUCAGCUUUGUGG (structured_RNA) [48 nt RNA (collagen alpha1(I) 5' UTR SL)]: no binding (HsLARP6(70-300) F135A); no binding (HsLARP6(70-300) F102A).
